The labels stand for the following.
B1: Nucleosome-remodeling factor subunit BPTF, residues 2862 to 2918; numbered along this chain, Q12830 (parent)
chain: TKKDTKLYCICKTPYDESKFYIGCDRCQNWYHGRCVGILQSEAELIDEYVCPQCQST

± gives the uncertainty stated by the source.

This note sets out measurements from the Human Domainome abundance scans (Beltran et al. 2025).

The variants in this series derive from B1. Kind of series: abundance fitness (aPCA) (normalised: wild type 0, dead -1); higher = more abundant; growth selection in yeast, the domain comes from the species named. To be noted: Homo sapiens.
On to TKKDTKLYCICKTPYDESKFYIGCDRCQNWYHGRCVGILQSEAELIDEYVCPECQST, for which the abundance fitness is -0.009 ± 0.092. With TKKDTKLYCICKTPYDESKFYIGCDRCQNWYHGRCVGILQSEAELIDEYVCPHCQST, the abundance fitness is -0.017 ± 0.14. For the variant TKKDTKLYCICKTPYDESKFYIGCDRCQNWYHGRCVGILQSEAELIDEYVCPWCQST, the abundance fitness is -0.25 ± 0.14. As for TKKDTKLYCICKTPYDESKFYIGCDRCQNWYHGRCVGILQSEAELIDEYVCPSCQST, the figure is -0.092 ± 0.089.

Regarding TKKDTKLYCICKTPYDESKFYIGCDRCQNWYHGRCVGILQSEAELIDEYVCPDCQST, the abundance fitness amounted to 0.037 ± 0.11.

TKKDTKLYCICKTPYDESKFYIGCDRCQNWYHGRCVGILQSEAELIDEYVCPTCQST: the abundance fitness is 0.054 ± 0.091.

As to TKKDTKLYCICKTPYDESKFYIGCDRCQNWYHGRCVGILQSEAELIDEYVCPNCQST, the abundance fitness worked out at 0.078 ± 0.11.

With TKKDTKLYCICKTPYDESKFYIGCDRCQNWYHGRCVGILQSEAELIDEYVCPACQST, the abundance fitness is -0.052 ± 0.079. As for TKKDTKLYCICKTPYDESKFYIGCDRCQNWYHGRCVGILQSEAELIDEYVCPKCQST, the figure is -0.122 ± 0.11; as for TKKDTKLYCICKTPYDESKFYIGCDRCQNWYHGRCVGILQSEAELIDEYVCPRCQST, -0.078 ± 0.08. For TKKDTKLYCICKTPYDESKFYIGCDRCQNWYHGRCVGILQSEAELIDEYVCPPCQST, the abundance fitness was -0.054 ± 0.093. Turning to TKKDTKLYCICKTPYDESKFYIGCDRCQNWYHGRCVGILQSEAELIDEYVCPLCQST, the abundance fitness was -0.047 ± 0.084. As for TKKDTKLYCICKTPYDESKFYIGCDRCQNWYHGRCVGILQSEAELIDEYVCPYCQST, the abundance fitness is -0.266 ± 0.13. As for TKKDTKLYCICKTPYDESKFYIGCDRCQNWYHGRCVGILQSEAELIDEYVCPCCQST, the figure is -0.16 ± 0.13; as for TKKDTKLYCICKTPYDESKFYIGCDRCQNWYHGRCVGILQSEAELIDEYVCPGCQST, 0.028 ± 0.092; as for TKKDTKLYCICKTPYDESKFYIGCDRCQNWYHGRCVGILQSEAELIDEYVCPICQST, 0.09 ± 0.13. For TKKDTKLYCICKTPYDESKFYIGCDRCQNWYHGRCVGILQSEAELIDEYVCPMCQST, the abundance fitness is -0.139 ± 0.11. To TKKDTKLYCICKTPYDESKFYIGCDRCQNWYHGRCVGILQSEAELIDETVCPQCQST belongs -0.447 ± 0.1. Regarding TKKDTKLYCICKTPYDESKFYIGCDRCQNWYHGRCVGILQSEAELIDEVVCPQCQST, the abundance fitness was -0.381 ± 0.091. As for TKKDTKLYCICKTPYDESKFYIGCDRCQNWYHGRCVGILQSEAELIDESVCPQCQST, the abundance fitness was -0.427 ± 0.075. To TKKDTKLYCICKTPYDESKFYIGCDRCQNWYHGRCVGILQSEAELIDEWVCPQCQST belongs -0.055 ± 0.12; to TKKDTKLYCICKTPYDESKFYIGCDRCQNWYHGRCVGILQSEAELIDEYLCPQCQST, 0.015 ± 0.074. Consider TKKDTKLYCICKTPYDESKFYIGCDRCQNWYHGRCVGILQSEAELIDEYPCPQCQST, for which the abundance fitness is -0.558 ± 0.1. To TKKDTKLYCICKTPYDESKFYIGCDRCQNWYHGRCVGILQSEAELIDEYCCPQCQST belongs -0.228 ± 0.095; to TKKDTKLYCICKTPYDESKFYIGCDRCQNWYHGRCVGILQSEAELIDEYQCPQCQST, -0.191 ± 0.14.

For TKKDTKLYCICKTPYDESKFYIGCDRCQNWYHGRCVGILQSEAELIDEYHCPQCQST, the abundance fitness was -0.288 ± 0.12. TKKDTKLYCICKTPYDESKFYIGCDRCQNWYHGRCVGILQSEAELIDEYACPQCQST: the abundance fitness was -0.252 ± 0.088.

TKKDTKLYCICKTPYDESKFYIGCDRCQNWYHGRCVGILQSEAELIDEYDCPQCQST: the abundance fitness was -0.268 ± 0.15. Regarding TKKDTKLYCICKTPYDESKFYIGCDRCQNWYHGRCVGILQSEAELIDEYWCPQCQST, the abundance fitness is -0.156 ± 0.078. For the variant TKKDTKLYCICKTPYDESKFYIGCDRCQNWYHGRCVGILQSEAELIDEYGCPQCQST, the abundance fitness is -0.672 ± 0.088. To TKKDTKLYCICKTPYDESKFYIGCDRCQNWYHGRCVGILQSEAELIDEYNCPQCQST belongs -0.203 ± 0.14. As for TKKDTKLYCICKTPYDESKFYIGCDRCQNWYHGRCVGILQSEAELIDEYICPQCQST, the figure is -0.013 ± 0.095; as for TKKDTKLYCICKTPYDESKFYIGCDRCQNWYHGRCVGILQSEAELIDEYSCPQCQST, -0.167 ± 0.077.

In the case of TKKDTKLYCICKTPYDESKFYIGCDRCQNWYHGRCVGILQSEAELIDEYFCPQCQST, the abundance fitness is -0.099 ± 0.12. As for TKKDTKLYCICKTPYDESKFYIGCDRCQNWYHGRCVGILQSEAELIDEYKCPQCQST, the figure is -0.102 ± 0.11; as for TKKDTKLYCICKTPYDESKFYIGCDRCQNWYHGRCVGILQSEAELIDEYMCPQCQST, -0.159 ± 0.11; as for TKKDTKLYCICKTPYDESKFYIGCDRCQNWYHGRCVGILQSEAELIDEYYCPQCQST, -0.357 ± 0.11. As for TKKDTKLYCICKTPYDESKFYIGCDRCQNWYHGRCVGILQSEAELIDEYRCPQCQST, the figure is -0.145 ± 0.062; as for TKKDTKLYCICKTPYDESKFYIGCDRCQNWYHGRCVGILQSEAELIDEYTCPQCQST, 0.037 ± 0.086; as for TKKDTKLYCICKTPYDESKFYIGCDRCQNWYHGRCVGILQSEAELIDEYECPQCQST, 0.132 ± 0.15. For the variant TKKDTKLYCICKTPYDESKFYIGCDRCQNWYHGRCVGILQSEAELIDEYVPPQCQST, the abundance fitness was -0.919 ± 0.19.

Consider TKKDTKLYCICKTPYDESKFYIGCDRCQNWYHGRCVGILQSEAELIDEYVFPQCQST, for which the abundance fitness was -0.916 ± 0.11.

TKKDTKLYCICKTPYDESKFYIGCDRCQNWYHGRCVGILQSEAELIDEYVRPQCQST: the abundance fitness was -0.743 ± 0.088.

Regarding TKKDTKLYCICKTPYDESKFYIGCDRCQNWYHGRCVGILQSEAELIDEYVIPQCQST, the abundance fitness is -1.08 ± 0.17.

Consider TKKDTKLYCICKTPYDESKFYIGCDRCQNWYHGRCVGILQSEAELIDEYVYPQCQST, for which the abundance fitness is -0.928 ± 0.14. Take TKKDTKLYCICKTPYDESKFYIGCDRCQNWYHGRCVGILQSEAELIDEYVLPQCQST: the abundance fitness was -0.889 ± 0.093.
